# B1: RAP-IDU fusion (human RAP fused N-terminally to human alpha-L-iduronidase) (protein)
# chain: SYSREKNQPKPSPKRESGEEFRMEKLNQLWEKAQRLHLPPVRLAELHADLKIQERDELAWKKLKLDGLDEDGEKEARLIRNLNVILAKYGLDGKKDARQVTSNSLSGTQEDGLDDPRLEKLWHKAKTSGKFSGEELDKLWREFLHHKEKVHEYNVLLETLSRTEEIHENVISPSDLSDIKGSVLHSRHTELKEKLRSINQGLDRLRRVSHQGYSTEAEFEEPRVIDLWDLAQSANLTDKELEAFREELKHFEAKIEKHNHYQKQLEIAHEKLRHAESVGDGERVSRSREKHALLEGRTKELGYTVKKHLQDLSGRISRARAEAETGEAPHLVHVDAARALWPLRRFWRSTGFCPPLPHSQADQYVLSWDQQLNLAYVGAVPHRGIKQVRTHWLLELVTTRGSTGRGLSYNFTHLDGYLDLLRENQLLPGFELMGSASGHFTDFEDKQQVFEWKDLVSSLARRYIGRYGLAHVSKWNFETWNEPDHHDFDNVSMTMQGFLNYYDACSEGLRAASPALRLGGPGDSFHTPPRSPLSWGLLRHCHDGTNFFTGEAGVRLDYISLHRKGARSSISILEQEKVVAQQIRQLFPKFADTPIYNDEADPLVGWSLPQPWRADVTYAAMVVKVIAQHQNLLLANTTSAFPYALLSNDNAFLSYHPHPFAQRTLTARFQVNNTRPPHVQLLRKPVLTAMGLLALLDEEQLWAEVSQAGTVLDSNHTVGVLASAHRPQGPADAWRAAVLIYASDDTRAHPNRSVAVTLRLRGVPPGPGLVYVTRYLDNGLCSPDGEWRRLGRPVFPTAEQFRRMRAAEDPVAAAPRPLPAGGRLTLRPALRLPSLLLVHVCARPEKPPGQVTRLRALPLTQGQLVLVWSDEHVGSKCLWTYEIQFSQDGKAYTPVSRKPSTFNLFVFSPDTGAVSGSYRVRALDYWARPGPFSDPVPYLEVPVPRGPPSPGNP
# Target: LRP
# Experiment: cell-based or functional assay
binder,measurement,value
B1,"Kuptake ratio (fusion/enzyme), RAP-IDU against rhIDU, fibroblast (ratio (fusion/enzyme))",25
same,"Uptake ratio (fusion/enzyme), RAP-IDU against rhIDU, fibroblast, 5 nM (ratio (fusion/enzyme))",7
same,"Uptake ratio (fusion/enzyme), RAP-IDU against rhIDU, fibroblast, 50 nM (ratio (fusion/enzyme))",27
same,"Uptake ratio (fusion/enzyme), RAP-IDU against rhIDU, fibroblast, saturation (ratio (fusion/enzyme))",43
